Assay results as given in patent publication US20060228334A1.

target: coxsackievirus-adenovirus receptor (CAR) on 293 cells (human) (UniProt P78310); assay: cell-based or functional assay
Sequence of UniProt P78310 (P78310 20-365): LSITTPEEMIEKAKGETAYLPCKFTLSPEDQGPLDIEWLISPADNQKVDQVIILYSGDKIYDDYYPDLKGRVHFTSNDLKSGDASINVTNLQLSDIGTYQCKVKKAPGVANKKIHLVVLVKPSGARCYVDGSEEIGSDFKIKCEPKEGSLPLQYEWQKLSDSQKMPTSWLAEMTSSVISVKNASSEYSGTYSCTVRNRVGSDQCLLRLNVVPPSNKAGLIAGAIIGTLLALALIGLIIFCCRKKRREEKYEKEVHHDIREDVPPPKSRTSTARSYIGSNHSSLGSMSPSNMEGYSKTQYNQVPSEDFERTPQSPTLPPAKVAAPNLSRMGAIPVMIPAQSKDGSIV

| Substance | IU/Particle (infectious units titrated on 293 cells per particle) [IU/Particle] | inhibition of infection of 293 cells by 10 ug/ml recombinant Ad5 knob (FIG. 2) [%] |
| --- | --- | --- |
| Ad5 fiber Ser408Glu and Lys506Gln/His508Lys (virus Ad-LacZ/Fb-S408E/K506Q/H508K) (from UniProt P11818 1-581) | 0.00025 | – |
| Ad5 fiber Ser408Glu and Val452Lys (virus Ad-LacZ/Fb-S408E/V452K) (from UniProt P11818 1-581) | 9.57e-05 | – |
| Ad5 fiber Lys506Gln/His508Lys (virus Ad-LacZ/Fb-Lys506Q/His508Lys) (from UniProt P11818 1-581) | 0.000769 | – |
| Ad5 fiber Ser408Glu and Ser555Lys (virus Ad-LacZ/Fb-S408E/S555K) (from UniProt P11818 1-581) | 6.38e-05 | – |
| wild-type Ad5 fiber protein (as carried by the Ad-LacZ virus) (from UniProt P11818 1-581) | 0.025 | 90 |
| Ad5 fiber Val452Lys (virus Ad-LacZ/Fb-Val452Lys) (from UniProt P11818 1-581) | 0.002 | – |
| Ad5 fiber Ala406Lys (virus Ad-LacZ/Fb-Ala406Lys) (from UniProt P11818 1-581) | 0.000125 | – |
| Ad5 fiber Ser408Glu (virus Ad-LacZ/Fb-S408E) (from UniProt P11818 1-581) | 9.54e-05 | – |
| Ad5 fiber Thr404Gly (virus Ad-LacZ/Fb-Thr404gly) (from UniProt P11818 1-581) | 8.33e-05 | – |
| Ad5 fiber Ser555Lys (virus Ad-LacZ/Fb-Ser555Lys) (from UniProt P11818 1-581) | 0.025 | – |
